Measurements reported in patent US20150175666A1 (YEDA RESEARCH AND DEVELOPMENT, published 2015).
Ends that are not written are not given here. * marks the point of attachment. NBD = O=[N+]([O-])c1ccc(*)c2nonc12

Tests used:
[1] = target: T1, NBD-labeled core peptide of the TCRα TMD (GLRILLLKV; SEQ ID NO: 14); assay: NBD fluorescence of NBD-CP on PC:Chol LUVs, sequential doses of unlabeled peptide
T1 construct: also called NBD-CP; CP
T1 peptide: {NBD}-GLRILLLKV

[2] = target: T2, TCR of MOG35-55-specific murine line T cells (mMOG35-55 T cells) (mouse, UniProt A2KF29); assay: cell-based or functional assay
T2 sequence (A2KF29 whole entry): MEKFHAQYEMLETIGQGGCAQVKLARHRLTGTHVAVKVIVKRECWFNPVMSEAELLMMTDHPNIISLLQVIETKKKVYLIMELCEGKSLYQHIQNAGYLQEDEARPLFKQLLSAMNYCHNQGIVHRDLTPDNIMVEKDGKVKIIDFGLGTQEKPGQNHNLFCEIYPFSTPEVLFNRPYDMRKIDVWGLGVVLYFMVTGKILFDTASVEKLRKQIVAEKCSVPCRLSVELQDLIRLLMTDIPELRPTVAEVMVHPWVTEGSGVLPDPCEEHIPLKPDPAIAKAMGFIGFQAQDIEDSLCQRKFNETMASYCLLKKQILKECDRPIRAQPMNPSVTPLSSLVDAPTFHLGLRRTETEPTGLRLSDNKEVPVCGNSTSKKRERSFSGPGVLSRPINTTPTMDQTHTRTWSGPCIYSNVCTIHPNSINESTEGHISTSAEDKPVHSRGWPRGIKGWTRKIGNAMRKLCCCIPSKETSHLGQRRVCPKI

[3] = target: T2, TCR of MOG35-55-specific murine line T …; assay: cell-based or functional assay; remark: listed apart in the source

| Binder | binding result [1] | inhibitory concentration at 50% proliferation (IC50), MOG35-55-specific T-cell proliferation [2] [µM] | IC50 (µM), inhibition of MOG35-55-specific T-cell proliferation [3] [µM] |
| --- | --- | --- | --- |
| SNKSLEQIGNHTTGMEGD (Unlabeled form used in the NBD-CP fluorescence experiment) [control mutant (W/G) peptide (SNKSLEQIGNHTTGMEGD, SEQ ID NO: 9), unlabeled] | binds | – | – |
| SNKSLEQIWNHTTWMEWD [pep 6 (SNKSLEQIWNHTTWMEWD), gp41 derived peptide, unlabeled] | binds | 1 | 0.55 |
| SNKSLEQIWNHTTWMGWG (pep 6 with the conserved acidic residues (Glu and Asp) mutated to Gly) [control mutant peptide (SNKSLEQIWNHTTWMGWG, SEQ ID NO: 10), unlabeled] | binds | – | – |
